# Measurements published in patent US20250361268A1, “NOVEL ANTI-INFLAMMATORY PEPTIDE AND USE THEREOF” (NOVACELL TECHNOLOGY INC., priority 2022, published 2025).
# T1: formyl peptide receptor 2 (FPR2) (UniProt P25090 1-351, limits assumed)
# T1 sequence (looked up): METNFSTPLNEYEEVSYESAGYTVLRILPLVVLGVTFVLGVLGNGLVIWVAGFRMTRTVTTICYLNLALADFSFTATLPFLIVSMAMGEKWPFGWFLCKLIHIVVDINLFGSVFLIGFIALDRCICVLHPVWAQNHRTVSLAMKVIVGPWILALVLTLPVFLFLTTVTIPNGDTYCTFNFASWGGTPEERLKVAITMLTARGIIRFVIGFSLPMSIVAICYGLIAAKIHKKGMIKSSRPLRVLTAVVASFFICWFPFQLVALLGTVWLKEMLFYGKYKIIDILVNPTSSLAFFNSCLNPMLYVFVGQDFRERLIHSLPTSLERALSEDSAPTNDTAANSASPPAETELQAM
# T2: FPR1 (UniProt P21462 1-350, limits assumed)
# T2 sequence (looked up): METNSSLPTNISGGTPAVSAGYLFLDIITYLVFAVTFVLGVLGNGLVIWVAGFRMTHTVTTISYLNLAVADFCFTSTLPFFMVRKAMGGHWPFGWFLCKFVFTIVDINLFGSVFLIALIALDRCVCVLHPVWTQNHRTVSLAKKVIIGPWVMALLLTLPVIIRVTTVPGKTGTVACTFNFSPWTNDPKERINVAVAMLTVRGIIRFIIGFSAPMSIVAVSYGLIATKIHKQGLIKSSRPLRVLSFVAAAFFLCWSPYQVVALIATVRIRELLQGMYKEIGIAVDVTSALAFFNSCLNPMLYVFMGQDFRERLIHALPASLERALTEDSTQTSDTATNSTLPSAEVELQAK
# B1: peptide of SEQ ID NO 89 (peptide)
# peptide: MKYWYM
# HELM: PEPTIDE1{M.K.Y.W.Y.[dM].[am]}$$$$V2.0; N-terminus assumed
# SMILES: CSCC[C@H](N)C(=O)N[C@@H](CCCCN)C(=O)N[C@@H](Cc1ccc(O)cc1)C(=O)N[C@@H](Cc1c[nH]c2ccccc12)C(=O)N[C@@H](Cc1ccc(O)cc1)C(=O)N[C@H](CCSC)C(N)=O
# B2: peptide of SEQ ID NO 87 (peptide)
# peptide: MRYWYM
# HELM: PEPTIDE1{[CCCC(=O)[*:2]].M.R.Y.W.Y.[dM].[am]}$$$$V2.0
# SMILES: CCCC(=O)N[C@@H](CCSC)C(=O)N[C@@H](CCCNC(=N)N)C(=O)N[C@@H](Cc1ccc(O)cc1)C(=O)N[C@@H](Cc1c[nH]c2ccccc12)C(=O)N[C@@H](Cc1ccc(O)cc1)C(=O)N[C@H](CCSC)C(N)=O
# B3: peptide of SEQ ID NO 83 (peptide)
# peptide: RMRYWYM
# HELM: PEPTIDE1{[CCCC(=O)[*:2]].R.M.R.Y.W.Y.[dM].[am]}$$$$V2.0
# SMILES: CCCC(=O)N[C@@H](CCCNC(=N)N)C(=O)N[C@@H](CCSC)C(=O)N[C@@H](CCCNC(=N)N)C(=O)N[C@@H](Cc1ccc(O)cc1)C(=O)N[C@@H](Cc1c[nH]c2ccccc12)C(=O)N[C@@H](Cc1ccc(O)cc1)C(=O)N[C@H](CCSC)C(N)=O
# B4: peptide of SEQ ID NO 136 (peptide)
# peptide: IKYKVM
# HELM: PEPTIDE1{[CCCC(=O)[*:2]].I.K.Y.K.V.[dM].[am]}$$$$V2.0
# SMILES: CCCC(=O)N[C@H](C(=O)N[C@@H](CCCCN)C(=O)N[C@@H](Cc1ccc(O)cc1)C(=O)N[C@@H](CCCCN)C(=O)N[C@H](C(=O)N[C@H](CCSC)C(N)=O)C(C)C)[C@@H](C)CC
# B5: peptide of SEQ ID NO 13 (peptide)
# peptide: MRYKVM
# HELM: PEPTIDE1{M.R.Y.K.V.[dM].[am]}$$$$V2.0; N-terminus assumed
# SMILES: CSCC[C@H](N)C(=O)N[C@@H](CCCNC(=N)N)C(=O)N[C@@H](Cc1ccc(O)cc1)C(=O)N[C@@H](CCCCN)C(=O)N[C@H](C(=O)N[C@H](CCSC)C(N)=O)C(C)C
# B6: peptide of SEQ ID NO 85 (peptide)
# peptide: MRYWYM
# HELM: PEPTIDE1{M.R.Y.W.Y.[dM].[am]}$$$$V2.0; N-terminus assumed
# SMILES: CSCC[C@H](N)C(=O)N[C@@H](CCCNC(=N)N)C(=O)N[C@@H](Cc1ccc(O)cc1)C(=O)N[C@@H](Cc1c[nH]c2ccccc12)C(=O)N[C@@H](Cc1ccc(O)cc1)C(=O)N[C@H](CCSC)C(N)=O
# B7: peptide of SEQ ID NO 92 (peptide)
# peptide: HMRYWYM
# HELM: PEPTIDE1{[ac].H.M.R.Y.W.Y.[dM].[am]}$$$$V2.0
# SMILES: CSCC[C@H](NC(=O)[C@H](Cc1c[nH]cn1)NC(C)=O)C(=O)N[C@@H](CCCNC(=N)N)C(=O)N[C@@H](Cc1ccc(O)cc1)C(=O)N[C@@H](Cc1c[nH]c2ccccc12)C(=O)N[C@@H](Cc1ccc(O)cc1)C(=O)N[C@H](CCSC)C(N)=O
# B8: peptide of SEQ ID NO 140 (peptide)
# peptide: PKYKVM
# HELM: PEPTIDE1{[CCCC(=O)[*:2]].P.K.Y.K.V.[dM].[am]}$$$$V2.0
# SMILES: CCCC(=O)N1CCC[C@H]1C(=O)N[C@@H](CCCCN)C(=O)N[C@@H](Cc1ccc(O)cc1)C(=O)N[C@@H](CCCCN)C(=O)N[C@H](C(=O)N[C@H](CCSC)C(N)=O)C(C)C
# B9: peptide of SEQ ID NO 127 (peptide)
# peptide: HMKYYYM
# HELM: PEPTIDE1{[CCCC(=O)[*:2]].H.M.K.Y.Y.Y.[dM].[am]}$$$$V2.0
# SMILES: CCCC(=O)N[C@@H](Cc1c[nH]cn1)C(=O)N[C@@H](CCSC)C(=O)N[C@@H](CCCCN)C(=O)N[C@@H](Cc1ccc(O)cc1)C(=O)N[C@@H](Cc1ccc(O)cc1)C(=O)N[C@@H](Cc1ccc(O)cc1)C(=O)N[C@H](CCSC)C(N)=O
# B10: peptide of SEQ ID NO 138 (peptide)
# peptide: PKYKVM
# HELM: PEPTIDE1{P.K.Y.K.V.[dM].[am]}$$$$V2.0; N-terminus assumed
# SMILES: CSCC[C@@H](NC(=O)[C@@H](NC(=O)[C@H](CCCCN)NC(=O)[C@H](Cc1ccc(O)cc1)NC(=O)[C@H](CCCCN)NC(=O)[C@@H]1CCCN1)C(C)C)C(N)=O
# B11: peptide of SEQ ID NO 82 (peptide)
# peptide: RMRYWYM
# HELM: PEPTIDE1{[ac].R.M.R.Y.W.Y.[dM].[am]}$$$$V2.0
# SMILES: CSCC[C@H](NC(=O)[C@H](CCCNC(=N)N)NC(C)=O)C(=O)N[C@@H](CCCNC(=N)N)C(=O)N[C@@H](Cc1ccc(O)cc1)C(=O)N[C@@H](Cc1c[nH]c2ccccc12)C(=O)N[C@@H](Cc1ccc(O)cc1)C(=O)N[C@H](CCSC)C(N)=O
# B12: peptide of SEQ ID NO 139 (peptide)
# peptide: PKYKVM
# HELM: PEPTIDE1{[ac].P.K.Y.K.V.[dM].[am]}$$$$V2.0
# SMILES: CSCC[C@@H](NC(=O)[C@@H](NC(=O)[C@H](CCCCN)NC(=O)[C@H](Cc1ccc(O)cc1)NC(=O)[C@H](CCCCN)NC(=O)[C@@H]1CCCN1C(C)=O)C(C)C)C(N)=O
# B13: peptide of SEQ ID NO 11 (peptide)
# peptide: KMKYKVM
# HELM: PEPTIDE1{[CCCC(=O)[*:2]].K.M.K.Y.K.V.[dM].[am]}$$$$V2.0
# SMILES: CCCC(=O)N[C@@H](CCCCN)C(=O)N[C@@H](CCSC)C(=O)N[C@@H](CCCCN)C(=O)N[C@@H](Cc1ccc(O)cc1)C(=O)N[C@@H](CCCCN)C(=O)N[C@H](C(=O)N[C@H](CCSC)C(N)=O)C(C)C
# B14: peptide of SEQ ID NO 86 (peptide)
# peptide: MRYWYM
# HELM: PEPTIDE1{[ac].M.R.Y.W.Y.[dM].[am]}$$$$V2.0
# SMILES: CSCC[C@H](NC(C)=O)C(=O)N[C@@H](CCCNC(=N)N)C(=O)N[C@@H](Cc1ccc(O)cc1)C(=O)N[C@@H](Cc1c[nH]c2ccccc12)C(=O)N[C@@H](Cc1ccc(O)cc1)C(=O)N[C@H](CCSC)C(N)=O
# B15: peptide of SEQ ID NO 125 (peptide)
# peptide: RMRYYYM
# HELM: PEPTIDE1{[ac].R.M.R.Y.Y.Y.[dM].[am]}$$$$V2.0
# SMILES: CSCC[C@H](NC(=O)[C@H](CCCNC(=N)N)NC(C)=O)C(=O)N[C@@H](CCCNC(=N)N)C(=O)N[C@@H](Cc1ccc(O)cc1)C(=O)N[C@@H](Cc1ccc(O)cc1)C(=O)N[C@@H](Cc1ccc(O)cc1)C(=O)N[C@H](CCSC)C(N)=O
# B16: peptide of SEQ ID NO 134 (peptide)
# peptide: IKYKVM
# HELM: PEPTIDE1{I.K.Y.K.V.[dM].[am]}$$$$V2.0; N-terminus assumed
# SMILES: CC[C@H](C)[C@H](N)C(=O)N[C@@H](CCCCN)C(=O)N[C@@H](Cc1ccc(O)cc1)C(=O)N[C@@H](CCCCN)C(=O)N[C@H](C(=O)N[C@H](CCSC)C(N)=O)C(C)C
# B17: peptide of SEQ ID NO 135 (peptide)
# peptide: IKYKVM
# HELM: PEPTIDE1{[ac].I.K.Y.K.V.[dM].[am]}$$$$V2.0
# SMILES: CC[C@H](C)[C@H](NC(C)=O)C(=O)N[C@@H](CCCCN)C(=O)N[C@@H](Cc1ccc(O)cc1)C(=O)N[C@@H](CCCCN)C(=O)N[C@H](C(=O)N[C@H](CCSC)C(N)=O)C(C)C
# B18: peptide of SEQ ID NO 133 (peptide)
# peptide: IKFKPM
# HELM: PEPTIDE1{I.K.F.K.P.[dM].[am]}$$$$V2.0; N-terminus assumed
# SMILES: CC[C@H](C)[C@H](N)C(=O)N[C@@H](CCCCN)C(=O)N[C@@H](Cc1ccccc1)C(=O)N[C@@H](CCCCN)C(=O)N1CCC[C@H]1C(=O)N[C@H](CCSC)C(N)=O
# B19: peptide of SEQ ID NO 123 (peptide)
# peptide: RWRYYYM
# HELM: PEPTIDE1{R.W.R.Y.Y.Y.[dM].[am]}$$$$V2.0; N-terminus assumed
# SMILES: CSCC[C@@H](NC(=O)[C@H](Cc1ccc(O)cc1)NC(=O)[C@H](Cc1ccc(O)cc1)NC(=O)[C@H](Cc1ccc(O)cc1)NC(=O)[C@H](CCCNC(=N)N)NC(=O)[C@H](Cc1c[nH]c2ccccc12)NC(=O)[C@@H](N)CCCNC(=N)N)C(N)=O
# Molecular target: T1, formyl peptide receptor 2 (FPR2)
# Experiment: cell-based or functional assay
row,EC50 for [Ca2+] [µM],Binder
1,< 0.01,B1
2,< 0.01,B2
3,< 0.01,B3
4,< 0.01,B4
5,< 0.01,B5
6,< 0.01,B6
7,< 0.01,B7
8,< 0.01,B8
9,< 0.01,B9
10,< 0.01,B10
11,< 0.01,B11
12,< 0.01,B12
13,< 0.01,B13
14,< 0.01,B14
15,< 0.01,B15
16,< 0.01,B16
17,< 0.01,B17
18,< 0.01,B18
19,< 0.01,B19

# Molecular target: T2, FPR1
# Experiment: cell-based or functional assay
row,EC50 for [Ca2+] [µM],Binder
1,> 10,B1
2,> 10,B2
3,> 10,B3
4,> 10,B4
5,> 10,B5
6,> 10,B6
7,> 10,B7
8,> 10,B8
9,> 10,B9
10,> 10,B10
11,> 10,B11
12,> 10,B12
13,> 10,B13
14,> 10,B14
15,> 10,B15
16,> 10,B16
17,> 10,B17
18,> 10,B18
19,> 10,B19
